Columns and labels:
Assay in all cases: cell-based or functional assay
[1] = molecular target: HIV-1 envelope of pseudovirus Ce1172_H1 (HIV-1)
[2] = molecular target: HIV-1 Env of pseudovirus ZM109F.PB4 (HIV-1)
[3] = molecular target: HIV-1 envelope of pseudovirus AC10.0.29 (HIV-1)
[4] = molecular target: HIV-1 Env of pseudovirus A07412M1.vrc12 (HIV-1)
[5] = molecular target: HIV-1 Env of pseudovirus Q259.d2.17 (HIV-1)
[6] = molecular target: HIV-1 envelope of pseudovirus T257-31 (HIV-1)
[7] = molecular target: HIV-1 envelope of pseudovirus CNE5 (HIV-1)
[8] = molecular target: HIV-1 Env of pseudovirus 3016.v5.c45 (HIV-1)
[9] = molecular target: HIV-1 envelope of pseudovirus T278-50 (HIV-1)
[10] = molecular target: HIV-1 envelope of pseudovirus X1193_c1 (HIV-1)
[11] = molecular target: HIV-1 envelope of pseudovirus T250-4 (HIV-1)
[12] = molecular target: HIV-1 Env of pseudovirus Ce1086_B2 (HIV-1)
[13] = molecular target: HIV-1 Env of pseudovirus Ce0393_C3 (HIV-1)
[14] = molecular target: HIV-1 Env of pseudovirus 6041.v3.c23 (HIV-1)
[15] = molecular target: HIV-1 envelope of pseudovirus HIV-16055-2.3 (HIV-1)
[16] = molecular target: HIV-1 Env of pseudovirus CNE30 (HIV-1)
[17] = molecular target: HIV-1 envelope of pseudovirus Ce0393_C3 (HIV-1)
[18] = molecular target: HIV-1 Env of pseudovirus 246F C1G (HIV-1)
[19] = molecular target: HIV-1 Env of pseudovirus 0815.v3.c3 (HIV-1)
[20] = molecular target: HIV-1 Env of pseudovirus HIV-16055-2.3 (HIV-1)
[21] = molecular target: HIV-1 Env of pseudovirus Ce0682_E4 (HIV-1)
[22] = molecular target: HIV-1 Env of pseudovirus 9004SS_A3_4 (HIV-1)
[23] = molecular target: HIV-1 Env of pseudovirus Q842.d12 (HIV-1)
[24] = molecular target: HIV-1 Env of pseudovirus CNE8 (HIV-1)
[25] = molecular target: HIV-1 Env of pseudovirus 89-F1_2_25 (HIV-1)
[26] = molecular target: HIV-1 envelope of pseudovirus MS208.A1 (HIV-1)
[27] = molecular target: HIV-1 Env of pseudovirus QH0692.42 (HIV-1)
[28] = molecular target: HIV-1 envelope of pseudovirus CNE17 (HIV-1)
[29] = molecular target: HIV-1 Env of pseudovirus CAP45.2.00.G3 (HIV-1)
[30] = molecular target: HIV-1 envelope of pseudovirus 0260.v5.c36 (HIV-1)
[31] = molecular target: HIV-1 envelope of pseudovirus SC422661.8 (HIV-1)
[32] = molecular target: HIV-1 Env of pseudovirus YU-2 (HIV-1) (UniProt P35961)
[33] = molecular target: HIV-1 Env of pseudovirus CAP210.2.00.E8 (HIV-1)
[34] = molecular target: HIV-1 Env of pseudovirus 6545.v4.c1 (HIV-1)
[35] = molecular target: HIV-1 Env of pseudovirus CNE19 (HIV-1)
[36] = molecular target: HIV-1 envelope of pseudovirus BF1266.431a (HIV-1)
[37] = molecular target: HIV-1 envelope of pseudovirus HIV-16845-2.22 (HIV-1)
[38] = molecular target: HIV-1 Env of pseudovirus BJOX025000.01.1 (HIV-1)
[39] = molecular target: HIV-1 envelope of pseudovirus 3103.v3.c10 (HIV-1)
[40] = molecular target: HIV-1 Env of pseudovirus T257-31 (HIV-1)
[41] = molecular target: HIV-1 envelope of pseudovirus P1981_C5_3 (HIV-1)
[42] = molecular target: HIV-1 Env of pseudovirus CNE20 (HIV-1)
[43] = molecular target: HIV-1 Env of pseudovirus BJOX028000.10.3 (HIV-1)
[44] = molecular target: HIV-1 Env of pseudovirus 6244_13_85_4576 (HIV-1)
[45] = molecular target: HIV-1 Env of pseudovirus RHPA4259.7 (HIV-1)
[46] = molecular target: HIV-1 Env of pseudovirus 7030102001E5(Rev-) (HIV-1)
[47] = molecular target: HIV-1 envelope of pseudovirus Du172.17 (HIV-1)
[48] = molecular target: HIV-1 envelope of pseudovirus 249M B10 (HIV-1)
[49] = molecular target: HIV-1 envelope spike of pseudovirus SS1196.1 (HIV-1)
[50] = molecular target: HIV-1 envelope spike of pseudovirus SC422661.8 (HIV-1)

10-1074 (antibody), sequence (VH): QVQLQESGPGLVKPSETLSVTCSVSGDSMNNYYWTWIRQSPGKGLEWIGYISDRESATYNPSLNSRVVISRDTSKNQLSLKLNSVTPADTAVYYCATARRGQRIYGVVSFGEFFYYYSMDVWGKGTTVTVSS
10-1074 (antibody), sequence (V domain): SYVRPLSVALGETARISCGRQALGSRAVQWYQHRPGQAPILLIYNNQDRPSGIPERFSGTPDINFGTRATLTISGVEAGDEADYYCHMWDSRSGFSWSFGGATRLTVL
HIV-1 Env of pseudovirus YU-2 (HIV-1), sequence (P35961 32-843 limits assumed): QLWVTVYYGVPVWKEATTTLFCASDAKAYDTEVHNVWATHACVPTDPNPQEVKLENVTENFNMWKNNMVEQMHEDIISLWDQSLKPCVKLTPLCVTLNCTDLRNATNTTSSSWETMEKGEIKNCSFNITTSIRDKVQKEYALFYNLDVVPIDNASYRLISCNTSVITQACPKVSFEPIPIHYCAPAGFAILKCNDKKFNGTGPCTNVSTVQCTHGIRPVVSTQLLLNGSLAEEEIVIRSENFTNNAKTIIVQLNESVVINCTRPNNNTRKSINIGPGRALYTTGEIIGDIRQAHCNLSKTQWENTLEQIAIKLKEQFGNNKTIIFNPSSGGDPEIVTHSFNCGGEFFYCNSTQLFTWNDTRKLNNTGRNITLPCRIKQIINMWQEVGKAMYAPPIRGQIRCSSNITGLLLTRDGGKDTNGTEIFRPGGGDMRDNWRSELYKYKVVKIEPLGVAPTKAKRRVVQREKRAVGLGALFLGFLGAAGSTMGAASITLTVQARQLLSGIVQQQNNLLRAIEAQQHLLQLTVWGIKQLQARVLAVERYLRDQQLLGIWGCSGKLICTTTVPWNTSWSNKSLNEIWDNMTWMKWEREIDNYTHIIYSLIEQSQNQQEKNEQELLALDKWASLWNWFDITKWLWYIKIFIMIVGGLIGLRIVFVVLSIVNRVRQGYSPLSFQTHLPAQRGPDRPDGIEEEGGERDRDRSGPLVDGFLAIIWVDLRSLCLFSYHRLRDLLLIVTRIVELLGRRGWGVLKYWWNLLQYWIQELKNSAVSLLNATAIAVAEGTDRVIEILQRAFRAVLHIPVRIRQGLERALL

## 10-1074 (antibody)
[1]
  IC50 (TZM-bl neutralization): 0.047 µg/mL
[2]
  IC80 (TZM-bl neutralization): > 50 µg/mL
[3]
  IC50 (TZM-bl neutralization): 0.022 µg/mL
[4]
  IC80 (TZM-bl neutralization): 0.048 µg/mL
[5]
  IC80 (TZM-bl neutralization): > 50 µg/mL
[6]
  IC50 (TZM-bl neutralization): > 50 µg/mL
[7]
  IC50 (TZM-bl neutralization): > 50 µg/mL
[8]
  IC80 (TZM-bl neutralization): > 50 µg/mL
[9]
  IC50 (TZM-bl neutralization): 2.15 µg/mL
[10]
  IC50 (TZM-bl neutralization): 0.083 µg/mL
[11]
  IC50 (TZM-bl neutralization): < 0.001 µg/mL
[12]
  IC80 (TZM-bl neutralization): > 50 µg/mL
[13]
  IC80 (TZM-bl neutralization): > 50 µg/mL
[14]
  IC80 (TZM-bl neutralization): > 50 µg/mL
[15]
  IC50 (TZM-bl neutralization): > 50 µg/mL
[16]
  IC80 (TZM-bl neutralization): 1.2 µg/mL
[17]
  IC50 (TZM-bl neutralization): > 50 µg/mL
[18]
  IC80 (TZM-bl neutralization): 0.111 µg/mL
[19]
  IC80 (TZM-bl neutralization): 0.138 µg/mL
[20]
  IC80 (TZM-bl neutralization): > 50 µg/mL
[21]
  IC80 (TZM-bl neutralization): > 50 µg/mL
[22]
  IC80 (TZM-bl neutralization): 0.03 µg/mL
[23]
  IC80 (TZM-bl neutralization): > 50 µg/mL
[24]
  IC80 (TZM-bl neutralization): > 50 µg/mL
[25]
  IC80 (TZM-bl neutralization): > 50 µg/mL
[26]
  IC50 (TZM-bl neutralization): > 50 µg/mL
[27]
  IC80 (TZM-bl neutralization): 0.929 µg/mL
[28]
  IC50 (TZM-bl neutralization): 2.69 µg/mL
[29]
  IC80 (TZM-bl neutralization): > 50 µg/mL
[30]
  IC50 (TZM-bl neutralization): 0.099 µg/mL
[31]
  IC50 (TZM-bl neutralization): 0.091 µg/mL
[32]
  IC80 (TZM-bl neutralization): 0.398 µg/mL
[33]
  IC80 (TZM-bl neutralization): > 50 µg/mL
[34]
  IC80 (TZM-bl neutralization): > 50 µg/mL
[35]
  IC80 (TZM-bl neutralization): > 50 µg/mL
[36]
  IC50 (TZM-bl neutralization): > 50 µg/mL
[37]
  IC50 (TZM-bl neutralization): 1.17 µg/mL
[38]
  IC80 (TZM-bl neutralization): > 50 µg/mL
[39]
  IC50 (TZM-bl neutralization): 0.037 µg/mL
[40]
  IC80 (TZM-bl neutralization): > 50 µg/mL
[41]
  IC50 (TZM-bl neutralization): 0.005 µg/mL
[42]
  IC80 (TZM-bl neutralization): 0.005 µg/mL
[43]
  IC80 (TZM-bl neutralization): > 50 µg/mL
[44]
  IC80 (TZM-bl neutralization): 0.922 µg/mL
[45]
  IC80 (TZM-bl neutralization): 0.118 µg/mL
[46]
  IC80 (TZM-bl neutralization): 0.021 µg/mL
[47]
  IC50 (TZM-bl neutralization): 0.121 µg/mL
[48]
  IC50 (TZM-bl neutralization): > 50 µg/mL
[49]
  IC50 (TZM-bl neutralization assay): 0.01 µg/mL
  IC80 (TZM-bl neutralization assay): 0.127 µg/mL
[50]
  IC50 (TZM-bl neutralization assay): 0.145 µg/mL
  IC80 (TZM-bl neutralization assay): 0.392 µg/mL

## PGT121 (antibody)
[1]
  IC50 (TZM-bl neutralization): 0.023 µg/mL
[2]
  IC80 (TZM-bl neutralization): > 50 µg/mL
[3]
  IC50 (TZM-bl neutralization): 0.037 µg/mL
[4]
  IC80 (TZM-bl neutralization): 0.406 µg/mL
[5]
  IC80 (TZM-bl neutralization): > 50 µg/mL
[6]
  IC50 (TZM-bl neutralization): > 50 µg/mL
[7]
  IC50 (TZM-bl neutralization): > 50 µg/mL
[8]
  IC80 (TZM-bl neutralization): > 50 µg/mL
[9]
  IC50 (TZM-bl neutralization): > 50 µg/mL
[10]
  IC50 (TZM-bl neutralization): 0.045 µg/mL
[11]
  IC50 (TZM-bl neutralization): 0.001 µg/mL
[12]
  IC80 (TZM-bl neutralization): 0.006 µg/mL
[13]
  IC80 (TZM-bl neutralization): > 50 µg/mL
[14]
  IC80 (TZM-bl neutralization): > 50 µg/mL
[15]
  IC50 (TZM-bl neutralization): 0.444 µg/mL
[16]
  IC80 (TZM-bl neutralization): 0.559 µg/mL
[17]
  IC50 (TZM-bl neutralization): > 50 µg/mL
[18]
  IC80 (TZM-bl neutralization): 0.287 µg/mL
[19]
  IC80 (TZM-bl neutralization): 0.105 µg/mL
[20]
  IC80 (TZM-bl neutralization): 4.29 µg/mL
[21]
  IC80 (TZM-bl neutralization): > 50 µg/mL
[22]
  IC80 (TZM-bl neutralization): 0.026 µg/mL
[23]
  IC80 (TZM-bl neutralization): 0.074 µg/mL
[24]
  IC80 (TZM-bl neutralization): > 50 µg/mL
[25]
  IC80 (TZM-bl neutralization): > 50 µg/mL
[26]
  IC50 (TZM-bl neutralization): > 50 µg/mL
[27]
  IC80 (TZM-bl neutralization): 8.54 µg/mL
[28]
  IC50 (TZM-bl neutralization): 45.3 µg/mL
[29]
  IC80 (TZM-bl neutralization): 6.54 µg/mL
[30]
  IC50 (TZM-bl neutralization): 0.054 µg/mL
[31]
  IC50 (TZM-bl neutralization): 0.101 µg/mL
[32]
  IC80 (TZM-bl neutralization): 0.356 µg/mL
[33]
  IC80 (TZM-bl neutralization): > 50 µg/mL
[34]
  IC80 (TZM-bl neutralization): > 50 µg/mL
[35]
  IC80 (TZM-bl neutralization): 0.189 µg/mL
[36]
  IC50 (TZM-bl neutralization): > 50 µg/mL
[37]
  IC50 (TZM-bl neutralization): 12.7 µg/mL
[38]
  IC80 (TZM-bl neutralization): > 50 µg/mL
[39]
  IC50 (TZM-bl neutralization): 0.042 µg/mL
[40]
  IC80 (TZM-bl neutralization): > 50 µg/mL
[41]
  IC50 (TZM-bl neutralization): 0.004 µg/mL
[42]
  IC80 (TZM-bl neutralization): 0.008 µg/mL
[43]
  IC80 (TZM-bl neutralization): > 50 µg/mL
[44]
  IC80 (TZM-bl neutralization): 1.88 µg/mL
[45]
  IC80 (TZM-bl neutralization): 0.054 µg/mL
[46]
  IC80 (TZM-bl neutralization): 0.043 µg/mL
[47]
  IC50 (TZM-bl neutralization): 0.115 µg/mL
[48]
  IC50 (TZM-bl neutralization): > 50 µg/mL
[49]
  IC50 (TZM-bl neutralization assay): 0.008 µg/mL
  IC80 (TZM-bl neutralization assay): 0.03 µg/mL
[50]
  IC50 (TZM-bl neutralization assay): 0.263 µg/mL
  IC80 (TZM-bl neutralization assay): 0.714 µg/mL
